# Measured values from doi:10.1101/2024.06.06.597810 (bioRxiv, 2024).
# T1: SARS-CoV-2 spike stem helix peptide (residues 1146-1159), displayed on yeast (SARS-CoV-2)
# T1 chain: DSFKEELDKYFKNH
# B1: S2P6 in single-chain variable fragment (scFv) format (scFv, V domains shown)
# VH: EVQLVQSGAEVKKPGASVKVSCKASGYTFTSQYMHWVRQAPGQGLEWIGIINPSGVHTSYAQKFQGRVTLTRDTSTSTLYMELSSLRSEDTAVYYCARGSPKGAFDYWGQGTLVTVSS
# VL: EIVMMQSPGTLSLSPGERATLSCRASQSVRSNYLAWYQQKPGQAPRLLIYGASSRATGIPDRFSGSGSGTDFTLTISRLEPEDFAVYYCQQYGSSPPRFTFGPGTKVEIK
# notes: not shown: HA, C-terminal, kept
# Biological target: T1, SARS-CoV-2 spike stem helix peptide …
# Experiment: flow cytometry on cells
# Settings: partners not purified
binder,measurement,value
B1,binding result,binds
